{"source": "paper PMC9638933", "key": {"Kumin": {"target": "T1, Kumin (Mycobacterium tuberculosis, UniProt P9WKD9 1-259)", "T1 sequence": "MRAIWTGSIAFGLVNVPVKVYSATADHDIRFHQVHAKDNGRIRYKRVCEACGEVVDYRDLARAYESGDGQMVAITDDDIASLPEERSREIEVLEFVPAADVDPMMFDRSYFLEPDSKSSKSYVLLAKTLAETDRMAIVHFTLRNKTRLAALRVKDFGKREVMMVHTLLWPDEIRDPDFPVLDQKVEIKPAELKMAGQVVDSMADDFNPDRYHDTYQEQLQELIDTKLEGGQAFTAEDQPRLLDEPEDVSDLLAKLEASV", "experiment": "EMSA; 5 mM Mg2+; EMSA: 50 mM Tris-HCl pH 8.0, 50 mM NaCl, 1 mM DTT, 5 mM MgCl2, 4% glycerol, 0.025 mg/ml BSA, 10 nM DNA, 30 C 20 min; FP: 10 mM Tris-HCl pH 8, 10 mM NaCl, 10% glycerol, 1 mM TCEP, 50 nM DNA, 30 C; ternary EMSA: 20 mM Tris-HCl pH 8.0, 5 mM MgCl2, 5% glycerol, 37 C; bridging: 20 mM Tris-HCl pH 7.5, 50 mM KCl, 5 mM EDTA, 1 mM DTT, 5% glycerol, 40 ug/ml BSA, room temperature", "conditions": "protein: recombinant; tags: His (Ni-NTA purified; pMCSG7); chain copies: 2; label: 5' 6-FAM on strand 1; blunt"}, "Kucore": {"target": "T2, Kucore (Mycobacterium tuberculosis, UniProt P9WKD9 1-238)", "T2 sequence": "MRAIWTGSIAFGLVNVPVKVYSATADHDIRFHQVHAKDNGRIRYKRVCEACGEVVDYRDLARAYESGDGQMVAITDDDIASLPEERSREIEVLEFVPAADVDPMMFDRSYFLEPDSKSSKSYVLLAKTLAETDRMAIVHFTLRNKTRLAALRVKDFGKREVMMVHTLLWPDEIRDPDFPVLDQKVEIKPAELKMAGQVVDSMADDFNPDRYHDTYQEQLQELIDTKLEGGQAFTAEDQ", "experiment": "EMSA; 5 mM Mg2+; EMSA: 50 mM Tris-HCl pH 8.0, 50 mM NaCl, 1 mM DTT, 5 mM MgCl2, 4% glycerol, 0.025 mg/ml BSA, 10 nM DNA, 30 C 20 min; FP: 10 mM Tris-HCl pH 8, 10 mM NaCl, 10% glycerol, 1 mM TCEP, 50 nM DNA, 30 C; ternary EMSA: 20 mM Tris-HCl pH 8.0, 5 mM MgCl2, 5% glycerol, 37 C; bridging: 20 mM Tris-HCl pH 7.5, 50 mM KCl, 5 mM EDTA, 1 mM DTT, 5% glycerol, 40 ug/ml BSA, room temperature", "conditions": "protein: recombinant; tags: His (Ni-NTA purified; pMCSG7); chain copies: 2; label: 5' 6-FAM on strand 1; blunt"}, "KuWT;LigD": {"target": "KuWT;LigD (Mycobacterium …, UniProt P9WKD9;P9WNV3 1-273;1-759, |)", "sequence (P9WKD9 whole entry, chain 1 of 2)": "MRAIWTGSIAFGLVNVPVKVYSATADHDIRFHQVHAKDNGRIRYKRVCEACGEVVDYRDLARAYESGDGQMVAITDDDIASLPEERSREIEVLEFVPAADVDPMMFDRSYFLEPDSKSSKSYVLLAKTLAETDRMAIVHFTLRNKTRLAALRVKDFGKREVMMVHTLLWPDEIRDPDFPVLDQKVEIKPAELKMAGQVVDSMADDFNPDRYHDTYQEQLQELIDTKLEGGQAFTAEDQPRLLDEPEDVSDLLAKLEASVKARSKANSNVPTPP", "sequence (P9WNV3 whole entry, chain 2 of 2)": "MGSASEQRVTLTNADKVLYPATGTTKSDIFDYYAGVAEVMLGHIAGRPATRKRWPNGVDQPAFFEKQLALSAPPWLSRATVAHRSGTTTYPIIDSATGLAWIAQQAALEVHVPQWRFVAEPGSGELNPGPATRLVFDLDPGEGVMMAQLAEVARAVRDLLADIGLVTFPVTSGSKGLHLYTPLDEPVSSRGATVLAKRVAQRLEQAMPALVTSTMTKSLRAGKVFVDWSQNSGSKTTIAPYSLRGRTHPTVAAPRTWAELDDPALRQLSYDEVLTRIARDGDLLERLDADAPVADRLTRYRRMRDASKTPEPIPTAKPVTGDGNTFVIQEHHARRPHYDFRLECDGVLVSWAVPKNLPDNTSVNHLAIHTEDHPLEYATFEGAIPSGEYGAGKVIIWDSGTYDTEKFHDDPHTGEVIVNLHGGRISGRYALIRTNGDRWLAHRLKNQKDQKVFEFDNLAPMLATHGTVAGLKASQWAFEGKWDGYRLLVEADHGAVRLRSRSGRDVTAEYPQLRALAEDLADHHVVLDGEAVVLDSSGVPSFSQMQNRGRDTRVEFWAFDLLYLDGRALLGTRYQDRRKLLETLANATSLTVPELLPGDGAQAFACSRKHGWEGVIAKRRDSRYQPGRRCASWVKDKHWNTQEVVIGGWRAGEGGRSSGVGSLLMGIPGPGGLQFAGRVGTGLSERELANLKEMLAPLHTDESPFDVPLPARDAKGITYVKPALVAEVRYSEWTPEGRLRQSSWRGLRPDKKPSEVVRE", "experiment": "EMSA; 10 uM Ku, 1 uM LigD; supershift; EMSA: 50 mM Tris-HCl pH 8.0, 50 mM NaCl, 1 mM DTT, 5 mM MgCl2, 4% glycerol, 0.025 mg/ml BSA, 10 nM DNA, 30 C 20 min; FP: 10 mM Tris-HCl pH 8, 10 mM NaCl, 10% glycerol, 1 mM TCEP, 50 nM DNA, 30 C; ternary EMSA: 20 mM Tris-HCl pH 8.0, 5 mM MgCl2, 5% glycerol, 37 C; bridging: 20 mM Tris-HCl pH 7.5, 50 mM KCl, 5 mM EDTA, 1 mM DTT, 5% glycerol, 40 ug/ml BSA, room temperature", "conditions": "protein: recombinant;recombinant; tags: His (Ni-NTA purified; pMCSG7);His (Ni-NTA purified; pMCSG7); chain copies: 2;1; label: 5' 6-FAM on strand 1; blunt"}, "Kumin;LigD": {"target": "Kumin;LigD (Mycobacterium …, UniProt P9WKD9;P9WNV3 1-259;1-759, |)", "sequence (P9WNV3 whole entry, chain 2 of 2, one chain of several)": "as the sequence (P9WNV3 whole entry, chain 2 of 2) above", "experiment": "EMSA; 10 uM Ku, 1 uM LigD; supershift; EMSA: 50 mM Tris-HCl pH 8.0, 50 mM NaCl, 1 mM DTT, 5 mM MgCl2, 4% glycerol, 0.025 mg/ml BSA, 10 nM DNA, 30 C 20 min; FP: 10 mM Tris-HCl pH 8, 10 mM NaCl, 10% glycerol, 1 mM TCEP, 50 nM DNA, 30 C; ternary EMSA: 20 mM Tris-HCl pH 8.0, 5 mM MgCl2, 5% glycerol, 37 C; bridging: 20 mM Tris-HCl pH 7.5, 50 mM KCl, 5 mM EDTA, 1 mM DTT, 5% glycerol, 40 ug/ml BSA, room temperature", "conditions": "protein: recombinant;recombinant; tags: His (Ni-NTA purified; pMCSG7);His (Ni-NTA purified; pMCSG7); chain copies: 2;1; label: 5' 6-FAM on strand 1; blunt"}, "LigD": {"target": "LigD (UniProt P9WNV3 1-759)", "sequence (P9WNV3 whole entry)": "as the sequence (P9WNV3 whole entry, chain 2 of 2) above", "experiment": "fluorescence polarization; EMSA: 50 mM Tris-HCl pH 8.0, 50 mM NaCl, 1 mM DTT, 5 mM MgCl2, 4% glycerol, 0.025 mg/ml BSA, 10 nM DNA, 30 C 20 min; FP: 10 mM Tris-HCl pH 8, 10 mM NaCl, 10% glycerol, 1 mM TCEP, 50 nM DNA, 30 C; ternary EMSA: 20 mM Tris-HCl pH 8.0, 5 mM MgCl2, 5% glycerol, 37 C; bridging: 20 mM Tris-HCl pH 7.5, 50 mM KCl, 5 mM EDTA, 1 mM DTT, 5% glycerol, 40 ug/ml BSA, room temperature", "conditions": "protein: recombinant; tags: His (Ni-NTA purified; pMCSG7); label: 5' 6-FAM on strand 1; blunt"}}, "data": [{"binder": "40 bp dsDNA (dsDNA) DNA 1: CAGGGTAAGTGTGGAGGTGTAGGGAAGGGAATGTTGTCTG DNA 2: CAGACAACATTCCCTTCCCTACACCTCCACACTTACCCTG", "values": [{"measurement": "Kd", "setting": "Kumin", "value": "460 ± 80", "unit": "nM"}, {"measurement": "Kd", "setting": "Kucore", "value": "70 ± 10", "unit": "nM"}, {"measurement": "binding result", "setting": "KuWT;LigD", "value": "binds"}, {"measurement": "binding result", "setting": "Kumin;LigD", "value": "binds"}, {"measurement": "Kd", "setting": "LigD", "value": "350 ± 30", "unit": "nM"}]}]}
